Literature values as cited in publication PMC2775921.
Where two headings read alike, the source gives them in different places.

Assays:
[1] = target: IL-2 (Homo sapiens) (UniProt P60568)
[2] = target: IL-2 (Homo sapiens) (UniProt P60568); remark: listed apart in the source

Sequence of UniProt P60568 (P60568 21-153): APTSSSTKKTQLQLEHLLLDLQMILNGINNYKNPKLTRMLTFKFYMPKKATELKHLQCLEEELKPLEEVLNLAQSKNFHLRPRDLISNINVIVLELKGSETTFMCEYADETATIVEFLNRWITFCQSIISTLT

Substance	Kd [1]	Kd [2]
CD25 (membrane α-chain) (from UniProt P01589)	0.01 µM	–
soluble CD25 (from UniProt P01589)	–	0.03 µM
